The supplement of paper PMC5998384

Experiments:
HeLa Kyoto [1] = assay: solubility in G1/S (NP-40 vs SDS abundance) (log2 ratio); higher = more soluble; conditions: cell cycle stage: G1/S
HeLa Kyoto [2] = assay: solubility change mitosis vs G1/S (difference of NP-40 vs SDS log2 ratios) (log2 ratio difference); higher = more soluble in mitosis
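For solubility change mitosis vs G1/S (difference of NP-40 vs SDS log2 ratios) in this document: synchronized HeLa Kyoto cells (double thymidine block for G1/S, nocodazole release for mitosis), protein amounts in NP-40 versus SDS lysates quantified by mass spectrometry, three biological replicates.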
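For solubility in G1/S (NP-40 vs SDS abundance) in this document: HeLa Kyoto cells arrested at G1/S by double thymidine block, proteins quantified by TMT10plex mass spectrometry in mild NP-40 versus SDS extracts, three biological replicates.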

| Substance | solubility in G1/S (log2) (HeLa Kyoto [1]) | solubility change mitosis (log2) (HeLa Kyoto [2]) |
| --- | --- | --- |
| MPGAGARAEEGGGGGEGAAQGAAAEPGAGPAREPARLCGYLQKLSGKGPLRGYRSRWFVFDARRCYLYYFKSPQDALPLGHLDIADACFSYQGPDEAAEPGTEPPAHFQVHSAGAVTVLKAPNRQLMTYWLQELQQKRWEYCNSLDMVKWDSRTSPTPGDFPKGLVARDNTDLIYPHPNASAEKARNVLAVETVPGELVGEQAANQPAPGHPNSINFYSLKQWGNELKNSMSSFRPGRGHNDSRRTVFYTNEEWELLDPTPKDLEESIVQEEKKKLTPEGNKGVTGSGFPFDFGRNPYKGKRPLKDIIGSYKNRHSSGDPSSEGTSGSGSVSIRKPASEMQLQVQSQQEELEQLKKDLSSQKELVRLLQQTVRSSQYDKYFTSSRLCEGVPKDTLELLHQKDDQILGLTSQLERFSLEKESLQQEVRTLKSKVGELNEQLGMLMETIQAKDEVIIKLSEGEGNGPPPTVAPSSPSVVPVARDQLELDRLKDNLQGYKTQNKFLNKEILELSALRRNAERRERDLMAKYSSLEAKLCQIESKYLILLQEMKTPVCSEDQGPTREVIAQLLEDALQVESQEQPEQAFVKPHLVSEYDIYGFRTVPEDDEEEKLVAKVRALDLKTLYLTENQEVSTGVKWENYFASTVNREMMCSPELKNLIRAGIPHEHRSKVWKWCVDRHTRKFKDNTEPGHFQTLLQKALEKQNPASKQIELDLLRTLPNNKHYSCPTSEGIQKLRNVLLAFSWRNPDIGYCQGLNRLVAVALLYLEQEDAFWCLVTIVEVFMPRDYYTKTLLGSQVDQRVFRDLMSEKLPRLHGHFEQYKVDYTLITFNWFLVVFVDSVVSDILFKIWDSFLYEGPKVIFRFALALFKYKEEEILKLQDSMSIFKYLRYFTRTILDARKLISISFGDLNPFPLRQIRNRRAYHLEKVRLELTELEAIREDFLRERDTSPDKGELVSDEEEDT [TBC1D2B] | -0.186 | -0.0456 |
| MSGTSKESLGHGGLPGLGKTCLTTMDTKLNMLNEKVDQLLHFQEDVTEKLQSMCRDMGHLERGLHRLEASRAPGPGGADGVPHIDTQAGWPEVLELVRAMQQDAAQHGARLEALFRMVAAVDRAIALVGATFQKSKVADFLMQGRVPWRRGSPGDSPEENKERVEEEGGKPKHVLSTSGVQSDAREPGEESQKADVLEGTAERLPPIRASGLGADPAQAVVSPGQGDGVPGPAQAFPGHLPLPTKVEAKAPETPSENLRTGLELAPAPGRVNVVSPSLEVAPGAGQGASSSRPDPEPLEEGTRLTPGPGPQCPGPPGLPAQARATHSGGETPPRISIHIQEMDTPGEMLMTGRGSLGPTLTTEAPAAAQPGKQGPPGTGRCLQAPGTEPGEQTPEGARELSPLQESSSPGGVKAEEEQRAGAEPGTRPSLARSDDNDHEVGALGLQQGKSPGAGNPEPEQDCAARAPVRAEAVRRMPPGAEAGSVVLDDSPAPPAPFEHRVVSVKETSISAGYEVCQHEVLGGGRFGQVHRCTEKSTGLPLAAKIIKVKSAKDREDVKNEINIMNQLSHVNLIQLYDAFESKHSCTLVMEYVDGGELFDRITDEKYHLTELDVVLFTRQICEGVHYLHQHYILHLDLKPENILCVNQTGHQIKIIDFGLARRYKPREKLKVNFGTPEFLAPEVVNYEFVSFPTDMWSVGVITYMLLSGLSPFLGETDAETMNFIVNCSWDFDADTFEGLSEEAKDFVSRLLVKEKSCRMSATQCLKHEWLNNLPAKASRSKTRLKSQLLLQKYIAQRKWKKHFYVVTAANRLRKFPTSP [MYLK3] | -0.00349 | -0.0471 |
| MASESETLNPSARIMTFYPTMEEFRNFSRYIAYIESQGAHRAGLAKVVPPKEWKPRASYDDIDDLVIPAPIQQLVTGQSGLFTQYNIQKKAMTVREFRKIANSDKYCTPRYSEFEELERKYWKNLTFNPPIYGADVNGTLYEKHVDEWNIGRLRTILDLVEKESGITIEGVNTPYLYFGMWKTSFAWHTEDMDLYSINYLHFGEPKSWYSVPPEHGKRLERLAKGFFPGSAQSCEAFLRHKMTLISPLMLKKYGIPFDKVTQEAGEFMITFPYGYHAGFNHGFNCAESTNFATRRWIEYGKQAVLCSCRKDMVKISMDVFVRKFQPERYKLWKAGKDNTVIDHTLPTPEAAEFLKESELPPRAGNEEECPEEDMEGVEDGEEGDLKTSLAKHRIGTKRHRVCLEIPQEVSQSELFPKEDLSSEQYEMTECPAALAPVRPTHSSVRQVEDGLTFPDYSDSTEVKFEELKNVKLEEEDEEEEQAAAALDLSVNPASVGGRLVFSGSKKKSSSSLGSGSSRDSISSDSETSEPLSCRAQGQTGVLTVHSYAKGDGRVTVGEPCTRKKGSAARSFSERELAEVADEYMFSLEENKKSKGRRQPLSKLPRHHPLVLQECVSDDETSEQLTPEEEAEETEAWAKPLSQLWQNRPPNFEAEKEFNETMAQQAPHCAVCMIFQTYHQVEFGGFNQNCGNASDLAPQKQRTKPLIPEMCFTSTGCSTDINLSTPYLEEDGTSILVSCKKCSVRVHASCYGVPPAKASEDWMCSRCSANALEEDCCLCSLRGGALQRANDDRWVHVSCAVAILEARFVNIAERSPVDVSKIPLPRFKLKCIFCKKRRKRTAGCCVQCSHGRCPTAFHVSCAQAAGVMMQPDDWPFVVFITCFRHKIPNLERAKGALQSITAGQKVISKHKNGRFYQCEVVRLTTETFYEVNFDDGSFSDNLYPEDIVSQDCLQFGPPAEGEVVQVRWTDGQVYGAKFVASHPIQMYQVEFEDGSQLVVKRDDVYTLDEELPKRVKSRLSVASDMRFNEIFTEKEVKQEKKRQRVINSRYREDYIEPALYRAIME [KDM4A] | -0.143 | 0.0206 |
| MRLFLWNAVLTLFVTSLIGALIPEPEVKIEVLQKPFICHRKTKGGDLMLVHYEGYLEKDGSLFHSTHKHNNGQPIWFTLGILEALKGWDQGLKGMCVGEKRKLIIPPALGYGKEGKGKIPPESTLIFNIDLLEIRNGPRSHESFQEMDLNDDWKLSKDEVKAYLKKEFEKHGAVVNESHHDALVEDIFDKEDEDKDGFISAREFTYKHDEL [FKBP14] | 0.295 | -0.053 |
| MPLRDKYCQTDHHHHGCCEPVYILEPGDPPLLQQPLQTSKSGIQQIIECFRSGTKQLKHILLKDVDTIFECKLCRSLFRGLPNLITHKKFYCPPSLQMDDNLPDVNDKQSQAINDLLEAIYPSVDKREYIIKLEPIETNQNAVFQYISRTDNPIEVTESSSTPEQTEVQIQETSTEQSKTVPVTDTEVETVEPPPVEIVTDEVAPTSDEQPQESQADLETSDNSDFGHQLICCLCRKEFNSRRGVRRHIRKVHKKKMEELKKYIETRKNPNQSSKGRSKNVLVPLSRSCPVCCKSFATKANVRRHFDEVHRGLRRDSITPDIATKPGQPLFLDSISPKKSFKTRKQKSSSKAEYNLTACKCLLCKRKYSSQIMLKRHMQIVHKITLSGTNSKREKGPNNTANSSEIKVKVEPADSVESSPPSITHSPQNELKGTNHSNEKKNTPAAQKNKVKQDSESPKSTSPSAAGGQQKTRKPKLSAGFDFKQLYCKLCKRQFTSKQNLTKHIELHTDGNNIYVKFYKCPLCTYETRRKRDVIRHITVVHKKSSRYLGKITASLEIRAIKKPIDFVLNKVAKRGPSRDEAKHSDSKHDGTSNSPSKKYEVADVGIEVKVTKNFSLHRCNKCGKAFAKKTYLEHHKKTHKANASNSPEGNKTKGRSTRSKALV [ZNF800] | -3.34 | 1.43 |
| MATSLDFKTYVDQACRAAEEFVNIYYETMDKRRRALTRLYLDKATLIWNGNAVSGLDALNNFFDTLPSSEFQVNMLDCQPVHEQATQSQTTVLVVTSGTVKFDGNKQHFFNQNFLLTAQSTPNNTVWKIASDCFRFQDWSSS [NXT2] | -0.596 | 0.401 |
| GFER | 0.733 | 0.192 |
| MGTSLSPNDPWPLNPLSIQQTTLLLLLSVLATVHVGQRLLRQRRRQLRSAPPGPFAWPLIGNAAAVGQAAHLSFARLARRYGDVFQIRLGSCPIVVLNGERAIHQALVQQGSAFADRPAFASFRVVSGGRSMAFGHYSEHWKVQRRAAHSMMRNFFTRQPRSRQVLEGHVLSEARELVALLVRGSADGAFLDPRPLTVVAVANVMSAVCFGCRYSHDDPEFRELLSHNEEFGRTVGAGSLVDVMPWLQYFPNPVRTVFREFEQLNRNFSNFILDKFLRHCESLRPGAAPRDMMDAFILSAEKKAAGDSHGGGARLDLENVPATITDIFGASQDTLSTALQWLLLLFTRYPDVQTRVQAELDQVVGRDRLPCMGDQPNLPYVLAFLYEAMRFSSFVPVTIPHATTANTSVLGYHIPKDTVVFVNQWSVNHDPLKWPNPENFDPARFLDKDGLINKDLTSRVMIFSVGKRRCIGEELSKMQLFLFISILAHQCDFRANPNEPAKMNFSYGLTIKPKSFKVNVTLRESMELLDSAVQNLQAKETCQ [CYP1B1] | -0.0639 | -0.171 |
| MIMNKMKNFKRRFSLSVPRTETIEESLAEFTEQFNQLHNRRNENLQLGPLGRDPPQECSTFSPTDSGEEPGQLSPGVQFQRRQNQRRFSMEDVSKRLSLPMDIRLPQEFLQKLQMESPDLPKPLSRMSRRASLSDIGFGKLETYVKLDKLGEGTYATVFKGRSKLTENLVALKEIRLEHEEGAPCTAIREVSLLKNLKHANIVTLHDLIHTDRSLTLVFEYLDSDLKQYLDHCGNLMSMHNVKIFMFQLLRGLAYCHHRKILHRDLKPQNLLINERGELKLADFGLARAKSVPTKTYSNEVVTLWYRPPDVLLGSTEYSTPIDMWGVGCIHYEMATGRPLFPGSTVKEELHLIFRLLGTPTEETWPGVTAFSEFRTYSFPCYLPQPLINHAPRLDTDGIHLLSSLLLYESKSRMSAEAALSHSYFRSLGERVHQLEDTASIFSLKEIQLQKDPGYRGLAFQQPGRGKNRRQSIF [CDK18] | 0.0482 | -0.00432 |
| MAATDLERFSNAEPEPRSLSLGGHVGFDSLPDQLVSKSVTQGFSFNILCVGETGIGKSTLMNTLFNTTFETEEASHHEACVRLRPQTYDLQESNVQLKLTIVDAVGFGDQINKDESYRPIVDYIDAQFENYLQEELKIRRSLFDYHDTRIHVCLYFITPTGHSLKSLDLVTMKKLDSKVNIIPIIAKADTISKSELHKFKIKIMGELVSNGVQIYQFPTDDEAVAEINAVMNAHLPFAVVGSTEEVKVGNKLVRARQYPWGVVQVENENHCDFVKLREMLIRVNMEDLREQTHSRHYELYRRCKLEEMGFQDSDGDSQPFSLQETYEAKRKEFLSELQRKEEEMRQMFVNKVKETELELKEKERELHEKFEHLKRVHQEEKRKVEEKRRELEEETNAFNRRKAAVEALQSQALHATSQQPLRKDKDKKNRSDIGAHQPGMSLSSSKVMMTKASVEPLNCSSWWPAIQCCSCLVRDATWREGFL [SEPT8] | -0.0316 | -0.0125 |
| SIPA1L2 | -0.433 | 0.275 |
| MAAGCCGVKKQKLSSSPPSGSGGGGGASSSSHCSGESQCRAGELGLGGAGTRLNGLGGLTGGGSGSGCTLSPPQGCGGGGGGIALSPPPSCGVGTLLSTPAAATSSSPSSSSAASSSSPGSRKMVVSAEMCCFCFDVLYCHLYGYQQPRTPRFTNEPYPLFVTWKIGRDKRLRGCIGTFSAMNLHSGLREYTLTSALKDSRFPPMTRDELPRLFCSVSLLTNFEDVCDYLDWEVGVHGIRIEFINEKGSKRTATYLPEVAKEQGWDHIQTIDSLLRKGGYKAPITNEFRKTIKLTRYRSEKMTLSYAEYLAHRQHHHFQNGIGHPLPPYNHYS [AMMECR1] | 0.255 | -0.37 |
| MKLLSLVAVVGCLLVPPAEANKSSEDIRCKCICPPYRNISGHIYNQNVSQKDCNCLHVVEPMPVPGHDVEAYCLLCECRYEERSTTTIKVIIVIYLSVVGALLLYMAFLMLVDPLIRKPDAYTEQLHNEEENEDARSMAAAAASLGGPRANTVLERVEGAQQRWKLQVQEQRKTVFDRHKMLS [TMEM9] | 0.254 | 0.292 |
